Assay results published in article PMC8778164, “Towards Complete Tumor Resection: Novel Dual-Modality Probes for Improved Image-Guided Surgery of GRPR-Expressing Prostate Cancer” (Pharmaceutics, 2022).
Where two headings read alike, the source gives them in different places.

Experiments:
[1] = Distribution coefficient (LogD7.4), shake-flask method; assay type: physicochemical; details: n-octanol/PBS pH 7.4, n = 3; read-out: Log D7.4
Method: Distribution coefficients (LogD7.4) for the ^111In-labeled compounds were determined by a shake-flask method. The experiments were performed in triplicate for each radioligand. A sample containing the radioligand (0.5–2.0 MBq) was dissolved in 1 mL solution of phosphate-buffered saline (0.01 M, pH 7.4) and n-octanol (v:v = 1:1). The vials were vortexed vigorously and then centrifuged at 10,000 rpm for 3 min, for phase separation. Samples (10 μL) of each phase were taken out and analyzed using a gamma counter. LogD7.4 values were calculated, using the following equation: LogD7.4 = log {(counts in n-octanol phase)/(counts in PBS phase)}.

[2] = Ex vivo biodistribution after SPECT/CT scanning; assay type: in vivo, mouse; details: mouse, iv, ~3 h p.i.; for tissue to tissue ratio: male, Balb/c nu/nu, total radioactivity, radioactivity; for tissue uptake at 3 h: PC-3 xenograft mice, i.v.
Method: (§1) Seven-week-old male Balb/c nu/nu-specific and opportunistic pathogen-free (SOPF) mice (Janvier Labs, Le Genest-Saint-Isle, France) were housed in individually ventilated cages, with 4 mice per cage. Upon arrival, mice were acclimated for 1 week, with access to food and water ad libitum. Mice were subcutaneously inoculated on the right shoulder with PC-3 cells (5 × 10^6 cells suspended in 100 µL of 1/3 Matrigel (Corning Inc., Corning, NY, USA) and 2/3 Hank’s balanced salt solution (Gibco). PC-3 xenografts were allowed to grow for 3 weeks. Tumor sizes were 391 ± 173 mm^3 at the start of the studies. All animal experiments were approved by the Animal Welfare Committee of the Erasmus MC and were conducted in agreement with institutional guidelines (license number: AVD101002017867, 28 September 2017).
(§2) To determine the biodistribution of the compounds after imaging (~3 h p.i.), blood was collected via cardiac puncture under isoflurane/O2 anesthesia, after which the mice were sacrificed. The tumor and organs of interest (prostate, pancreas, spleen, liver, GI tract (stomach, small intestine, cecum, large intestine), kidneys, lungs, heart, muscle, bone, and brain) were excised, washed in PBS and blotted dry. The stomach, intestines and cecum were emptied of their contents. The tumor was cut in half; one half was fresh-frozen for further analysis and the other half was collected for ex vivo optical imaging and radioactivity measurements. After imaging, the blood, tumor, and relevant organs were weighed and measured in a γ-counter. To determine the total injected radioactivity per animal, samples of the injected solutions were measured as well. The percentage of injected dose per gram (%ID/g) was determined for each tissue sample and corrected for both the injected volume and %ID present at the injection site (the tail). Because the low weight of the prostate limited accurate organ weight measurements, the average prostate weight of all animals was used.

[3] = test system: PC-3-xenograft Balb/c nu/nu mice; assay: Ex vivo biodistribution after SPECT/CT scanning; assay type: in vivo, mouse; details: radioactivity, ~3 h p.i.
Method: as §1, §2

[4] = Ex vivo optical (fluorescence, IVIS) imaging of organs; assay type: in vivo, mouse; details: male, Balb/c nu/nu, mouse, iv, ex vivo radiant efficiency
Method: as §1
(§3) Before gamma counter measurements, the tumor half, pancreas, kidneys, lungs, small intestine, large intestine, liver, muscle, and bone were placed in two petri dishes and ex vivo optical imaging was performed with the IVIS Spectrum system (Perkin Elmer, Waltham, MA, USA) using the following settings for all measurements: FOV 12.6 cm, medium binning, f2, 0.5 s exposure with an excitation/emission filter of 640 nm/680 nm. Living Image version 4.5.2 software (Perkin Elmer) was used to perform data analysis by drawing a region of interest around the organ/tissue to quantify the radiant efficiency {(photons/second/cm^2/steradian)/(μW/cm^2)}.

[5] = test system: PC-3-xenograft Balb/c nu/nu mice; assay: as above; assay type: in vivo, mouse; details: ex vivo after dissection, ex/em 640/680 nm
Method: as §1, §3

[6] = blocked with 150 nmol unlabeled NeoB, n = 1
[7] = non-blocked, n = 3, listed as [111In]In‐12

Structure (SMILES): CC(C)CC(CC(C)C)NC(=O)[C@H](Cc1c[nH]cn1)NC(=O)CNC(=O)[C@@H](NC(=O)[C@H](C)NC(=O)[C@H](Cc1c[nH]c2ccccc12)NC(=O)[C@H](CCC(N)=O)NC(=O)[C@@H](Cc1ccccc1)NC(=O)COCC(=O)Nc1ccc(CNC(=O)[C@H](CCCCNC(=O)CCOCCOCCOCCOCCNC(=O)OC2CCCC3C=NN=C(c4ccc(CNC(=O)CCCCC[N+]5=C(/C=C/C=C/C=C6N(C)c7ccc(S(=O)(=O)O)cc7C6(C)C)C(C)(C)c6cc(S(=O)(=O)[O-])ccc65)cc4)C3CC2)NC(=O)CN2CCN(CC(=O)O)CCN(CC(=O)O)CCN(CC(=O)O)CC2)cc1)C(C)C (some centres unmarked) [[^111In]In-12, metal not drawn]
- logD [1]: -1.66 ± 0.01
- tissue to tissue ratio ([2]; tumor and blood, non-blocked, n = 3, read-out: Tumor-to-blood ratio): 1.09 ± 0.15
- tissue to tissue ratio ([2]; tumor and kidney, blocked with 150 nmol unlabeled NeoB, n = 1, read-out: Tumor-to-kidney ratio): 0.16
- tissue to tissue ratio ([2]; tumor and kidney, non-blocked, n = 3, read-out: Tumor-to-kidney ratio): 0.34 ± 0.05
- tissue to tissue ratio ([2]; tumor and liver, blocked with 150 nmol unlabeled NeoB, n = 1, read-out: Tumor-to-liver ratio): 0.14
- tissue to tissue ratio ([2]; tumor and liver, non-blocked, n = 3, read-out: Tumor-to-liver ratio): 0.55 ± 0.04
- tissue to tissue ratio ([2]; tumor and muscle, blocked with 150 nmol unlabeled NeoB, n = 1, read-out: Tumor-to-muscle ratio): 2.62
- tissue to tissue ratio ([2]; tumor and muscle, non-blocked, n = 3, read-out: Tumor-to-muscle ratio): 9.04 ± 1.74
- tissue to tissue ratio ([2]; tumor and pancreas, blocked with 150 nmol unlabeled NeoB, n = 1, read-out: Tumor-to-pancreas ratio): 2.16
- tissue to tissue ratio ([2]; tumor and pancreas, non-blocked, n = 3, read-out: Tumor-to-pancreas ratio): 0.51 ± 0.03
- tissue uptake at 3 h ([2]; blood, blocked with 150 nmol unlabeled NeoB, n = 1, read-out: Blood uptake): 7.31 %ID/g
- tissue uptake at 3 h ([2]; blood, non-blocked, n = 3, read-out: Blood uptake): 7.83 ± 0.84 %ID/g
- tissue uptake at 3 h ([2]; bone, blocked with 150 nmol unlabeled NeoB, n = 1, read-out: Bone uptake): 1.87 %ID/g
- tissue uptake at 3 h ([2]; bone, non-blocked, n = 3, read-out: Bone uptake): 2.03 ± 0.89 %ID/g
- tissue uptake at 3 h ([2]; brain, blocked with 150 nmol unlabeled NeoB, n = 1, read-out: Brain uptake): 0.2 %ID/g
- tissue uptake at 3 h ([2]; brain, non-blocked, n = 3, read-out: Brain uptake): 0.2 ± 0.03 %ID/g
- tissue uptake at 3 h ([2]; cecum, blocked with 150 nmol unlabeled NeoB, n = 1, read-out: Cecum uptake): 2.35 %ID/g
- tissue uptake at 3 h ([2]; cecum, non-blocked, n = 3, read-out: Cecum uptake): 3.73 ± 0.4 %ID/g
- tissue uptake at 3 h ([2]; heart, blocked with 150 nmol unlabeled NeoB, n = 1, read-out: Heart uptake): 2.24 %ID/g
- tissue uptake at 3 h ([2]; heart, non-blocked, n = 3, read-out: Heart uptake): 2.39 ± 0.23 %ID/g
- tissue uptake at 3 h ([2]; kidneys, blocked with 150 nmol unlabeled NeoB, n = 1, read-out: Kidneys uptake): 17.1 %ID/g
- tissue uptake at 3 h ([2]; kidneys, non-blocked, n = 3, read-out: Kidneys uptake): 24.9 ± 2.78 %ID/g
- tissue uptake at 3 h ([2]; large intestine, blocked with 150 nmol unlabeled NeoB, n = 1, read-out: Large intestine uptake): 2.06 %ID/g
- tissue uptake at 3 h ([2]; large intestine, non-blocked, n = 3, read-out: Large intestine uptake): 3.88 ± 0.4 %ID/g
- tissue uptake at 3 h ([2]; liver, blocked with 150 nmol unlabeled NeoB, n = 1, read-out: Liver uptake): 20 %ID/g
- tissue uptake at 3 h ([2]; liver, non-blocked, n = 3, read-out: Liver uptake): 15.3 ± 0.43 %ID/g
- tissue uptake at 3 h ([2]; lungs, blocked with 150 nmol unlabeled NeoB, n = 1, read-out: Lungs uptake): 16.1 %ID/g
- tissue uptake at 3 h ([2]; lungs, non-blocked, n = 3, read-out: Lungs uptake): 6.51 ± 1.15 %ID/g
- tissue uptake at 3 h ([2]; muscle, blocked with 150 nmol unlabeled NeoB, n = 1, read-out: Muscle uptake): 1.04 %ID/g
- tissue uptake at 3 h ([2]; muscle, non-blocked, n = 3, read-out: Muscle uptake): 0.96 ± 0.16 %ID/g
- tissue uptake at 3 h ([2]; pancreas, blocked with 150 nmol unlabeled NeoB, n = 1, read-out: Pancreas uptake): 1.26 %ID/g
- tissue uptake at 3 h ([2]; pancreas, non-blocked, n = 3, read-out: Pancreas uptake): 16.6 ± 1.41 %ID/g
- tissue uptake at 3 h ([2]; prostate, blocked with 150 nmol unlabeled NeoB, n = 1, read-out: Prostate uptake): 4.36 %ID/g
- tissue uptake at 3 h ([2]; prostate, non-blocked, n = 3, read-out: Prostate uptake): 3.56 ± 1.62 %ID/g
- tissue uptake at 3 h ([2]; small intestine, blocked with 150 nmol unlabeled NeoB, n = 1, read-out: Small intestine uptake): 1.45 %ID/g
- tissue uptake at 3 h ([2]; small intestine, non-blocked, n = 3, read-out: Small intestine uptake): 4.4 ± 2.45 %ID/g
- tissue uptake at 3 h ([2]; spleen, blocked with 150 nmol unlabeled NeoB, n = 1, read-out: Spleen uptake): 3.32 %ID/g
- tissue uptake at 3 h ([2]; spleen, non-blocked, n = 3, read-out: Spleen uptake): 4.11 ± 0.94 %ID/g
- tissue uptake at 3 h ([2]; stomach, blocked with 150 nmol unlabeled NeoB, n = 1, read-out: Stomach uptake): 3.12 %ID/g
- tissue uptake at 3 h ([2]; stomach, non-blocked, n = 3, read-out: Stomach uptake): 3.22 ± 0.54 %ID/g
- tissue uptake at 3 h ([2]; tumor, blocked with 150 nmol unlabeled NeoB, n = 1, read-out: Tumor uptake): 2.72 %ID/g
- tissue uptake at 3 h ([2]; tumor, non-blocked, n = 3, read-out: Tumor uptake): 8.47 ± 0.46 %ID/g
- Tumor-to-blood ratio [3, 6]: 0.37
- Tumor-to-prostate ratio [3, 6]: 0.62
- Tumor-to-prostate ratio ([3]; non-blocked, n = 3): 2.86 ± 1.58
- tissue to tissue ratio ([4]; tumor and kidney, blocked with 150 nmol unlabeled NeoB, n = 1, read-out: Tumor-to-kidney ratio (fluorescence)): 0.31
- tissue to tissue ratio ([4]; tumor and kidney, non-blocked, n = 3, read-out: Tumor-to-kidney ratio (fluorescence)): 0.47 ± 0.16
- tissue to tissue ratio ([4]; tumor and liver, blocked with 150 nmol unlabeled NeoB, n = 1, read-out: Tumor-to-liver ratio (fluorescence)): 0.69
- tissue to tissue ratio ([4]; tumor and liver, non-blocked, n = 3, read-out: Tumor-to-liver ratio (fluorescence)): 1.96 ± 0.47
- tissue to tissue ratio ([4]; tumor and muscle, blocked with 150 nmol unlabeled NeoB, n = 1, read-out: Tumor-to-muscle ratio (fluorescence)): 2.21
- tissue to tissue ratio ([4]; tumor and muscle, non-blocked, n = 3, read-out: Tumor-to-muscle ratio (fluorescence)): 5.69 ± 1.94
- tissue to tissue ratio ([4]; tumor and pancreas, blocked with 150 nmol unlabeled NeoB, n = 1, read-out: Tumor-to-pancreas ratio (fluorescence)): 2.54
- tissue to tissue ratio ([4]; tumor and pancreas, non-blocked, n = 3, read-out: Tumor-to-pancreas ratio (fluorescence)): 0.69 ± 0.22
- Fluorescent signal, bone (average radiant efficiency) [5, 6]: 0.32 × 10^8 p/sec/cm^2/sr per µW/cm
- Fluorescent signal, kidneys (average radiant efficiency) [5, 6]: 5.42 × 10^8 p/sec/cm^2/sr per µW/cm
- Fluorescent signal, large intestine (average radiant efficiency) [5, 6]: 0.47 × 10^8 p/sec/cm^2/sr per µW/cm
- Fluorescent signal, liver (average radiant efficiency) [5, 6]: 2.42 × 10^8 p/sec/cm^2/sr per µW/cm
- Fluorescent signal, lungs (average radiant efficiency) [5, 6]: 2.88 × 10^8 p/sec/cm^2/sr per µW/cm
- Fluorescent signal, muscle (average radiant efficiency) [5, 6]: 0.76 × 10^8 p/sec/cm^2/sr per µW/cm
- Fluorescent signal, pancreas (average radiant efficiency) [5, 6]: 0.66 × 10^8 p/sec/cm^2/sr per µW/cm
- Fluorescent signal, small intestine (average radiant efficiency) [5, 6]: 0.44 × 10^8 p/sec/cm^2/sr per µW/cm
- Fluorescent signal, tumor (average radiant efficiency) [5, 6]: 1.67 × 10^8 p/sec/cm^2/sr per µW/cm
- Fluorescent signal, bone (average radiant efficiency) ([5]; non-blocked, n = 3): 0.40 ± 0.11 × 10^8 p/sec/cm^2/sr per µW/cm
- Fluorescent signal, kidneys (average radiant efficiency) ([5]; non-blocked, n = 3): 9.41 ± 0.92 × 10^8 p/sec/cm^2/sr per µW/cm^2
- Fluorescent signal, large intestine (average radiant efficiency) ([5]; non-blocked, n = 3): 0.68 ± 0.19 × 10^8 p/sec/cm^2/sr per µW/cm
- Fluorescent signal, liver (average radiant efficiency) ([5]; non-blocked, n = 3): 2.20 ± 0.09 × 10^8 p/sec/cm^2/sr per µW/cm
- Fluorescent signal, lungs (average radiant efficiency) ([5]; non-blocked, n = 3): 1.93 ± 0.18 × 10^8 p/sec/cm^2/sr per µW/cm
- Fluorescent signal, muscle (average radiant efficiency) ([5]; non-blocked, n = 3): 0.78 ± 0.08 × 10^8 p/sec/cm^2/sr per µW/cm
- Fluorescent signal, pancreas (average radiant efficiency) ([5]; non-blocked, n = 3): 6.32 ± 0.50 × 10^8 p/sec/cm^2/sr per µW/cm^2
- Fluorescent signal, small intestine (average radiant efficiency) ([5]; non-blocked, n = 3): 0.85 ± 0.30 × 10^8 p/sec/cm^2/sr per µW/cm
- Fluorescent signal, tumor (average radiant efficiency) ([5]; non-blocked, n = 3): 4.31 ± 1.03 × 10^8 p/sec/cm^2/sr per µW/cm^2
- Fluorescent signal, kidneys (average radiant efficiency) [5, 7]: 9.41 ± 0.92 × 10^8 p/sec/cm^2/sr per µW/cm
- Fluorescent signal, pancreas (average radiant efficiency) [5, 7]: 6.32 ± 0.50 × 10^8 p/sec/cm^2/sr per µW/cm
- Fluorescent signal, tumor (average radiant efficiency) [5, 7]: 4.31 ± 1.03 × 10^8 p/sec/cm^2/sr per µW/cm
